Measurements: the supplement of paper PMC9112550, “Optimization of the antimicrobial peptide Bac7 by deep mutational scanning” (BMC Biology, 2022)

System: Escherichia coli TOP10
Assay: shrunken log2 fold change of peptide-encoding DNA abundance (4.5 h post-induction vs induction); higher = less antimicrobial activity (less host growth inhibition)
Conditions: time post-induction: 4.5 h; library: site-saturation at positions 5, 18, 19, 20
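Also: peptides expressed intracellularly from a pBAD plasmid library in pooled LB shake-flask culture, induced with 0.3% L-arabinose, DNA abundance read by NGS, three biological replicates, DESeq2 with apeglm shrinkage.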

Sequence	shrunken log2 fold change
RRIRHRPPRLPRPRPRPGRAPRP	0.49
RRIRMRPPRLPRPRPRPYHNPRP	-0.47
RRIRGRPPRLPRPRPRPWTQPRP	0.236
RRIRKRPPRLPRPRPRPIYFPRP	0.216
RRIRNRPPRLPRPRPRPTNTPRP	-0.34
RRIRQRPPRLPRPRPRPGNQPRP	0.0157
RRIRPRPPRLPRPRPRPAHGPRP	0.708
RRIRRRPPRLPRPRPRPSKFPRP	-0.0219
RRIRHRPPRLPRPRPRPIAMPRP	-0.119
RRIRERPPRLPRPRPRPRCWPRP	0.014
RRIRWRPPRLPRPRPRPVRNPRP	0.432
RRIRERPPRLPRPRPRPQTRPRP	0.0866
RRIRFRPPRLPRPRPRPSLYPRP	-0.594
RRIRPRPPRLPRPRPRPGAVPRP	0.379
RRIRWRPPRLPRPRPRPFQYPRP	-0.199
RRIRDRPPRLPRPRPRPSYIPRP	-0.267
RRIRIRPPRLPRPRPRPCFFPRP	-0.503
RRIRGRPPRLPRPRPRPMEFPRP	0.0673
RRIRSRPPRLPRPRPRPMVTPRP	-0.134
RRIRCRPPRLPRPRPRPYAMPRP	-0.436
RRIRIRPPRLPRPRPRPPGMPRP	0.238
RRIRDRPPRLPRPRPRPKEIPRP	0.0219
RRIRRRPPRLPRPRPRPHHQPRP	-0.086
RRIRYRPPRLPRPRPRPVVMPRP	0.00213
RRIRMRPPRLPRPRPRPPCKPRP	-0.0348

Sequence	shrunken log2 fold change
RRIRFRPPRLPRPRPRPSHIPRP	-0.216
RRIRPRPPRLPRPRPRPIMCPRP	-0.221
RRIRPRPPRLPRPRPRPGNFPRP	-0.25
RRIRGRPPRLPRPRPRPTMPPRP	0.425
RRIRMRPPRLPRPRPRPGRHPRP	0.441
RRIRGRPPRLPRPRPRPFDPPRP	0.14
RRIRARPPRLPRPRPRPIGEPRP	-0.0613
RRIRDRPPRLPRPRPRPNPDPRP	-0.0924
RRIRPRPPRLPRPRPRPWLFPRP	-0.0483
RRIRVRPPRLPRPRPRPWYTPRP	-0.507
RRIRNRPPRLPRPRPRPECSPRP	0.079
RRIRKRPPRLPRPRPRPHCRPRP	-0.022
RRIRIRPPRLPRPRPRPSMWPRP	-0.178
RRIRNRPPRLPRPRPRPHETPRP	-0.127
RRIRARPPRLPRPRPRPYIPPRP	-0.805
RRIRGRPPRLPRPRPRPYDHPRP	-0.181
RRIRARPPRLPRPRPRPWMVPRP	0.0197
RRIRIRPPRLPRPRPRPCAAPRP	-0.0041
RRIRSRPPRLPRPRPRPVIAPRP	0.053
RRIRTRPPRLPRPRPRPAGWPRP	0.517
RRIRYRPPRLPRPRPRPSRQPRP	-0.114
RRIRGRPPRLPRPRPRPEEKPRP	1.66
RRIRFRPPRLPRPRPRPTHIPRP	-0.496
RRIRTRPPRLPRPRPRPPCHPRP	-0.164
RRIRSRPPRLPRPRPRPGQQPRP	0.0543

Sequence	shrunken log2 fold change
RRIRNRPPRLPRPRPRPPTYPRP	-0.217
RRIRNRPPRLPRPRPRPRQMPRP	0.0821
RRIRSRPPRLPRPRPRPFGCPRP	0.029
RRIRVRPPRLPRPRPRPYQPPRP	-0.509
RRIRLRPPRLPRPRPRPQAKPRP	-0.0308
RRIRERPPRLPRPRPRPECLPRP	-0.137
RRIRIRPPRLPRPRPRPSGHPRP	-0.397
RRIRSRPPRLPRPRPRPNTSPRP	-0.242
RRIRVRPPRLPRPRPRPFHFPRP	-0.238
RRIRVRPPRLPRPRPRPPVCPRP	0.191
RRIRWRPPRLPRPRPRPPFEPRP	0.765
RRIRRRPPRLPRPRPRPTTSPRP	0.591
RRIRIRPPRLPRPRPRPPRDPRP	0.203
RRIRTRPPRLPRPRPRPHMKPRP	-0.712
RRIRPRPPRLPRPRPRPPRKPRP	0.79
RRIRHRPPRLPRPRPRPKYIPRP	-0.796
RRIRKRPPRLPRPRPRPTCQPRP	0.333
RRIRFRPPRLPRPRPRPKLYPRP	-0.481
RRIRRRPPRLPRPRPRPCNDPRP	-0.0872
RRIRHRPPRLPRPRPRPLSVPRP	-0.136
RRIRMRPPRLPRPRPRPMNLPRP	0.11
RRIRKRPPRLPRPRPRPGSKPRP	-0.0334
RRIRERPPRLPRPRPRPCYTPRP	-0.0917
RRIRQRPPRLPRPRPRPPSRPRP	0.138
RRIRVRPPRLPRPRPRPFFYPRP	0.0563

Sequence	shrunken log2 fold change
RRIRMRPPRLPRPRPRPLKHPRP	-0.0893
RRIRHRPPRLPRPRPRPRRCPRP	0.166
RRIRTRPPRLPRPRPRPEFVPRP	0.107
RRIRRRPPRLPRPRPRPSDGPRP	0.0219
RRIRVRPPRLPRPRPRPRNCPRP	-0.129
RRIRSRPPRLPRPRPRPLFKPRP	-0.127
RRIRNRPPRLPRPRPRPMKHPRP	-0.705
RRIRHRPPRLPRPRPRPVRRPRP	0.241
RRIRPRPPRLPRPRPRPYPWPRP	-0.345
RRIRDRPPRLPRPRPRPFDVPRP	0.016
RRIRVRPPRLPRPRPRPGVWPRP	1.88
RRIRPRPPRLPRPRPRPIIGPRP	-0.0597
RRIRNRPPRLPRPRPRPMFIPRP	-0.383
RRIRVRPPRLPRPRPRPSTKPRP	-0.213
RRIRLRPPRLPRPRPRPNQRPRP	0.00956
RRIRPRPPRLPRPRPRPVVPPRP	0.134
RRIRTRPPRLPRPRPRPTVIPRP	-0.17
RRIRVRPPRLPRPRPRPKDIPRP	-0.642
RRIRDRPPRLPRPRPRPNLQPRP	-0.71
RRIRDRPPRLPRPRPRPWVFPRP	0.289
RRIRRRPPRLPRPRPRPIHWPRP	-0.0227
RRIRDRPPRLPRPRPRPCIAPRP	0.0755
RRIRRRPPRLPRPRPRPFPEPRP	0.212
RRIRVRPPRLPRPRPRPGRGPRP	0.632
RRIRIRPPRLPRPRPRPTIPPRP	-0.463

Sequence	shrunken log2 fold change
RRIRDRPPRLPRPRPRPIMNPRP	0.0718
RRIRIRPPRLPRPRPRPENWPRP	-0.00191
RRIRRRPPRLPRPRPRPMRMPRP	0.119
RRIRKRPPRLPRPRPRPEQHPRP	0.586
RRIRDRPPRLPRPRPRPCGPPRP	0.0478
RRIRFRPPRLPRPRPRPSLVPRP	-0.167
RRIRIRPPRLPRPRPRPFPFPRP	-1.39
RRIRWRPPRLPRPRPRPQNTPRP	0.591
RRIRSRPPRLPRPRPRPQWHPRP	-0.26
RRIRERPPRLPRPRPRPSEGPRP	0.00843
RRIRLRPPRLPRPRPRPKNAPRP	-0.238
RRIRRRPPRLPRPRPRPHCQPRP	0.17
RRIRKRPPRLPRPRPRPVVWPRP	0.602
RRIRERPPRLPRPRPRPHWMPRP	-0.157
RRIRCRPPRLPRPRPRPGYQPRP	-0.06
RRIRIRPPRLPRPRPRPMFCPRP	-0.345
RRIRRRPPRLPRPRPRPEACPRP	0.463
RRIRRRPPRLPRPRPRPWNAPRP	-0.0963
RRIRIRPPRLPRPRPRPKKLPRP	-0.219
RRIRARPPRLPRPRPRPIMDPRP	-0.0229
RRIRNRPPRLPRPRPRPDMAPRP	-0.0639
RRIRGRPPRLPRPRPRPGNIPRP	-0.104
RRIRGRPPRLPRPRPRPYFKPRP	-0.366
RRIRMRPPRLPRPRPRPCPMPRP	-0.0993
RRIRCRPPRLPRPRPRPNDCPRP	-0.0147
